Assay results published in EP4663654A1 (Hangzhou Sciwind Biosciences Co., Ltd., dated 2025).
Starred links: 1 amine or outer side, 2 acyl side, 3 side chain; linkers in the order of their positions; H or OH if unused. Non-standard residues stand in square brackets, D forms with d. Primed or numbered codes have the meaning given here. *: point of attachment. C20 diacid = O=C(O)CCCCCCCCCCCCCCCCCCC(=O)*; γGlu = O=C(O)[C@H](CCC(=O)[*:2])N[*:1]; βAsp = O=C(O)[C@H](CC(=O)[*:2])N[*:1]; Hyp = O=C(O)[C@@H]1C[C@@H](O)CN1; Inp′ = not defined here; Trx′ = not defined here; AEEA = NCCOCCOCC(=O)O

T1: human amylin receptor (AMY3) on CHO-K1/Ga15/AMY3 amylin receptor/CRE-luc cells (human, UniProt P30988 25-474; O60896 24-148)
T1 sequence (looked up) 1: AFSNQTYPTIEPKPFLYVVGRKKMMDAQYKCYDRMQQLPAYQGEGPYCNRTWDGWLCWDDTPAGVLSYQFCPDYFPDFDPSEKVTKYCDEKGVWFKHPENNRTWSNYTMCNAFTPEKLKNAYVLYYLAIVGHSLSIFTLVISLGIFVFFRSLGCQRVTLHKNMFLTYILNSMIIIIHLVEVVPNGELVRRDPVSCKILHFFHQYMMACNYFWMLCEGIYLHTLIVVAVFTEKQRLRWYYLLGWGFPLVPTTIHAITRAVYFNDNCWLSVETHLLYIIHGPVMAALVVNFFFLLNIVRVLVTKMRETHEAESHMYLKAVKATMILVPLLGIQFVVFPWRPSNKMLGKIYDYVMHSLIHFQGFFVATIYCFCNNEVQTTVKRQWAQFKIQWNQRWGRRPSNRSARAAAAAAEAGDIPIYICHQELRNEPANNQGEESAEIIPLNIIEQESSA
T1 sequence (looked up) 2: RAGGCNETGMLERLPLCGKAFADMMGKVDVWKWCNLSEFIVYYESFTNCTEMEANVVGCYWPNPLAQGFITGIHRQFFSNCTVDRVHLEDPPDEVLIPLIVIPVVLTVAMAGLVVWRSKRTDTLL


target: T1, human amylin receptor (AMY3) on …; experiment: cell-based or functional assay

EC50/nM, CRE-luciferase reporter in amylin receptor/CRE-luc CHO cells	Relative activity (the EC50 ratio of Cagrilintide to the compound)	Binder
0.034 nM	78%	{C20 diacid}-DASQLSTAATQRLADFLRHFTDRDRDILPPTNVGSNTP-NH2 (SMILES CC[C@H](C)[C@H](NC(=O)[C@H](CC(=O)O)NC(=O)[C@H](CCCNC(=N)N)NC(=O)[C@H](CC(=O)O)NC(=O)[C@H](CCCNC(=N)N)NC(=O)[C@H](CC(=O)O)NC(=O)[C@@H](NC(=O)[C@H](Cc1ccccc1)NC(=O)[C@H](Cc1c[nH]cn1)NC(=O)[C@H](CCCNC(=N)N)NC(=O)[C@H](CC(C)C)NC(=O)[C@H](Cc1ccccc1)NC(=O)[C@H](CC(=O)O)NC(=O)[C@H](C)NC(=O)[C@H](CC(C)C)NC(=O)[C@H](CCCNC(=N)N)NC(=O)[C@H](CCC(N)=O)NC(=O)[C@@H](NC(=O)[C@H](C)NC(=O)[C@H](C)NC(=O)[C@@H](NC(=O)[C@H](CO)NC(=O)[C@H](CC(C)C)NC(=O)[C@H](CCC(N)=O)NC(=O)[C@H](CO)NC(=O)[C@H](C)NC(=O)[C@H](CC(=O)O)NC(=O)CCCCCCCCCCCCCCCCCCC(=O)O)[C@@H](C)O)[C@@H](C)O)[C@@H](C)O)C(=O)N[C@@H](CC(C)C)C(=O)N1CCC[C@H]1C(=O)N1CCC[C@H]1C(=O)N[C@H](C(=O)N[C@@H](CC(N)=O)C(=O)N[C@H](C(=O)NCC(=O)N[C@@H](CO)C(=O)N[C@@H](CC(N)=O)C(=O)N[C@H](C(=O)N1CCC[C@H]1C(N)=O)[C@@H](C)O)C(C)C)[C@@H](C)O) [polypeptide derivative M13]
0.004 nM	110%	{C20 diacid}-EASQLSTAATQRLADFLRHFTDRDRDILPPTNVGSNTP-NH2 (SMILES CC[C@H](C)[C@H](NC(=O)[C@H](CC(=O)O)NC(=O)[C@H](CCCNC(=N)N)NC(=O)[C@H](CC(=O)O)NC(=O)[C@H](CCCNC(=N)N)NC(=O)[C@H](CC(=O)O)NC(=O)[C@@H](NC(=O)[C@H](Cc1ccccc1)NC(=O)[C@H](Cc1c[nH]cn1)NC(=O)[C@H](CCCNC(=N)N)NC(=O)[C@H](CC(C)C)NC(=O)[C@H](Cc1ccccc1)NC(=O)[C@H](CC(=O)O)NC(=O)[C@H](C)NC(=O)[C@H](CC(C)C)NC(=O)[C@H](CCCNC(=N)N)NC(=O)[C@H](CCC(N)=O)NC(=O)[C@@H](NC(=O)[C@H](C)NC(=O)[C@H](C)NC(=O)[C@@H](NC(=O)[C@H](CO)NC(=O)[C@H](CC(C)C)NC(=O)[C@H](CCC(N)=O)NC(=O)[C@H](CO)NC(=O)[C@H](C)NC(=O)[C@H](CCC(=O)O)NC(=O)CCCCCCCCCCCCCCCCCCC(=O)O)[C@@H](C)O)[C@@H](C)O)[C@@H](C)O)C(=O)N[C@@H](CC(C)C)C(=O)N1CCC[C@H]1C(=O)N1CCC[C@H]1C(=O)N[C@H](C(=O)N[C@@H](CC(N)=O)C(=O)N[C@H](C(=O)NCC(=O)N[C@@H](CO)C(=O)N[C@@H](CC(N)=O)C(=O)N[C@H](C(=O)N1CCC[C@H]1C(N)=O)[C@@H](C)O)C(C)C)[C@@H](C)O) [polypeptide derivative M11]
0.049 nM	53%	{C20 diacid-γGlu}-ASQLSTAVTQRLADFLRHFTDRDRDILPPTNVGSNTP-NH2 (SMILES CC[C@H](C)[C@H](NC(=O)[C@H](CC(=O)O)NC(=O)[C@H](CCCNC(=N)N)NC(=O)[C@H](CC(=O)O)NC(=O)[C@H](CCCNC(=N)N)NC(=O)[C@H](CC(=O)O)NC(=O)[C@@H](NC(=O)[C@H](Cc1ccccc1)NC(=O)[C@H](Cc1c[nH]cn1)NC(=O)[C@H](CCCNC(=N)N)NC(=O)[C@H](CC(C)C)NC(=O)[C@H](Cc1ccccc1)NC(=O)[C@H](CC(=O)O)NC(=O)[C@H](C)NC(=O)[C@H](CC(C)C)NC(=O)[C@H](CCCNC(=N)N)NC(=O)[C@H](CCC(N)=O)NC(=O)[C@@H](NC(=O)[C@@H](NC(=O)[C@H](C)NC(=O)[C@@H](NC(=O)[C@H](CO)NC(=O)[C@H](CC(C)C)NC(=O)[C@H](CCC(N)=O)NC(=O)[C@H](CO)NC(=O)[C@H](C)NC(=O)CC[C@H](NC(=O)CCCCCCCCCCCCCCCCCCC(=O)O)C(=O)O)[C@@H](C)O)C(C)C)[C@@H](C)O)[C@@H](C)O)C(=O)N[C@@H](CC(C)C)C(=O)N1CCC[C@H]1C(=O)N1CCC[C@H]1C(=O)N[C@H](C(=O)N[C@@H](CC(N)=O)C(=O)N[C@H](C(=O)NCC(=O)N[C@@H](CO)C(=O)N[C@@H](CC(N)=O)C(=O)N[C@H](C(=O)N1CCC[C@H]1C(N)=O)[C@@H](C)O)C(C)C)[C@@H](C)O) [polypeptide derivative M8]
0.042 nM	58%	{C20 diacid-γGlu-AEEA-AEEA}-ASQLSTAATQRLADFLRHFTDRDRDILPPTNVGSNTP-NH2 (SMILES CC[C@H](C)[C@H](NC(=O)[C@H](CC(=O)O)NC(=O)[C@H](CCCNC(=N)N)NC(=O)[C@H](CC(=O)O)NC(=O)[C@H](CCCNC(=N)N)NC(=O)[C@H](CC(=O)O)NC(=O)[C@@H](NC(=O)[C@H](Cc1ccccc1)NC(=O)[C@H](Cc1c[nH]cn1)NC(=O)[C@H](CCCNC(=N)N)NC(=O)[C@H](CC(C)C)NC(=O)[C@H](Cc1ccccc1)NC(=O)[C@H](CC(=O)O)NC(=O)[C@H](C)NC(=O)[C@H](CC(C)C)NC(=O)[C@H](CCCNC(=N)N)NC(=O)[C@H](CCC(N)=O)NC(=O)[C@@H](NC(=O)[C@H](C)NC(=O)[C@H](C)NC(=O)[C@@H](NC(=O)[C@H](CO)NC(=O)[C@H](CC(C)C)NC(=O)[C@H](CCC(N)=O)NC(=O)[C@H](CO)NC(=O)[C@H](C)NC(=O)COCCOCCNC(=O)COCCOCCNC(=O)CC[C@H](NC(=O)CCCCCCCCCCCCCCCCCCC(=O)O)C(=O)O)[C@@H](C)O)[C@@H](C)O)[C@@H](C)O)C(=O)N[C@@H](CC(C)C)C(=O)N1CCC[C@H]1C(=O)N1CCC[C@H]1C(=O)N[C@H](C(=O)N[C@@H](CC(N)=O)C(=O)N[C@H](C(=O)NCC(=O)N[C@@H](CO)C(=O)N[C@@H](CC(N)=O)C(=O)N[C@H](C(=O)N1CCC[C@H]1C(N)=O)[C@@H](C)O)C(C)C)[C@@H](C)O) [polypeptide derivative M16]
0.018 nM	136%	{C20 diacid-Trx′}-ASQLSTAATQRLADFLRHFTDRDRDILPPTNVGSNTP-NH2 (reading uncertain) [polypeptide derivative M14]
0.026 nM	100%	{C20 diacid-γGlu}-ASQLSTAVLQRLADFLRHSSNNLKPILPPTNVGSNT[Hyp]-NH2 (SMILES CC[C@H](C)[C@H](NC(=O)[C@@H]1CCCN1C(=O)[C@H](CCCCN)NC(=O)[C@H](CC(C)C)NC(=O)[C@H](CC(N)=O)NC(=O)[C@H](CC(N)=O)NC(=O)[C@H](CO)NC(=O)[C@H](CO)NC(=O)[C@H](Cc1c[nH]cn1)NC(=O)[C@H](CCCNC(=N)N)NC(=O)[C@H](CC(C)C)NC(=O)[C@H](Cc1ccccc1)NC(=O)[C@H](CC(=O)O)NC(=O)[C@H](C)NC(=O)[C@H](CC(C)C)NC(=O)[C@H](CCCNC(=N)N)NC(=O)[C@H](CCC(N)=O)NC(=O)[C@H](CC(C)C)NC(=O)[C@@H](NC(=O)[C@H](C)NC(=O)[C@@H](NC(=O)[C@H](CO)NC(=O)[C@H](CC(C)C)NC(=O)[C@H](CCC(N)=O)NC(=O)[C@H](CO)NC(=O)[C@H](C)NC(=O)CC[C@H](NC(=O)CCCCCCCCCCCCCCCCCCC(=O)O)C(=O)O)[C@@H](C)O)C(C)C)C(=O)N[C@@H](CC(C)C)C(=O)N1CCC[C@H]1C(=O)N1CCC[C@H]1C(=O)N[C@H](C(=O)N[C@@H](CC(N)=O)C(=O)N[C@H](C(=O)NCC(=O)N[C@@H](CO)C(=O)N[C@@H](CC(N)=O)C(=O)N[C@H](C(=O)N1C[C@H](O)C[C@H]1C(N)=O)[C@@H](C)O)C(C)C)[C@@H](C)O) [polypeptide derivative M9]
0.034 nM	78%	{C20 diacid-βAsp}-ASQLSTAATQRLADFLRHFTDRDRDILPPTNVGSNTP-NH2 (SMILES CC[C@H](C)[C@H](NC(=O)[C@H](CC(=O)O)NC(=O)[C@H](CCCNC(=N)N)NC(=O)[C@H](CC(=O)O)NC(=O)[C@H](CCCNC(=N)N)NC(=O)[C@H](CC(=O)O)NC(=O)[C@@H](NC(=O)[C@H](Cc1ccccc1)NC(=O)[C@H](Cc1c[nH]cn1)NC(=O)[C@H](CCCNC(=N)N)NC(=O)[C@H](CC(C)C)NC(=O)[C@H](Cc1ccccc1)NC(=O)[C@H](CC(=O)O)NC(=O)[C@H](C)NC(=O)[C@H](CC(C)C)NC(=O)[C@H](CCCNC(=N)N)NC(=O)[C@H](CCC(N)=O)NC(=O)[C@@H](NC(=O)[C@H](C)NC(=O)[C@H](C)NC(=O)[C@@H](NC(=O)[C@H](CO)NC(=O)[C@H](CC(C)C)NC(=O)[C@H](CCC(N)=O)NC(=O)[C@H](CO)NC(=O)[C@H](C)NC(=O)C[C@H](NC(=O)CCCCCCCCCCCCCCCCCCC(=O)O)C(=O)O)[C@@H](C)O)[C@@H](C)O)[C@@H](C)O)C(=O)N[C@@H](CC(C)C)C(=O)N1CCC[C@H]1C(=O)N1CCC[C@H]1C(=O)N[C@H](C(=O)N[C@@H](CC(N)=O)C(=O)N[C@H](C(=O)NCC(=O)N[C@@H](CO)C(=O)N[C@@H](CC(N)=O)C(=O)N[C@H](C(=O)N1CCC[C@H]1C(N)=O)[C@@H](C)O)C(C)C)[C@@H](C)O) [polypeptide derivative M12]
0.03 nM	81%	{C20 diacid-Inp′}-ASQLSTAATQRLADFLRHFTDRDRDILPPTNVGSNTP-NH2 [polypeptide derivative M15]
